# From the DeepSol protein solubility set
# Experiment: soluble on expression in E. coli; label from the status in PepcDB or PDB records
row,Sequence,soluble on expression in E. coli
1,MDGSQGSTDYGDHVVLRYGGTREMVPLIRHEQMLDMLMERARQIVQGFGNLDTRNMYLFRHEYNSPTLLYPITSASQITSGSILEIILVDRTEAAVIPHVVEPESYMRPTFCDFCGEMLTGLMRQGVKCKNCNGNFHKRCSNAARNNCGAPGAPGAQPSRPPILPPIPTTPTGFPVAALSTPTGLPHTLIEHSYRQFTVCKVCDHLLVGLVKQGLKCRDCGVNVHRKCAMELASNCVLSENAISRVNFTDPEGPGSSSSDNIPLFRLPGQVGTRATEKKKLEGWMMHFILSDPERRLKHYWMMQSNAIHLYNEYSEGIGVNPNRVYRIIPLAEITSVVQNNGKSVLAKHPPHCFEIRTTTNTVFCVGEDYHAFSGGPPKKIPRSMSVRPSSNTTMWFQFIKESLQPPSRNEDNAEQALEFANLYQVLSDKTLGSGQFGTVYSAIQRHSGKEVAVKVISKERFSKKGSGAESMRAEVAILQQTCHPGIVCLEFMCETKDKIFVVMEKMNGDMLEMILSQELGRLNSRATKFLLVQILCALKYLHDQGIAHCDLKPENVLLSDMGSNFPQTKICDFGYARFIPESQFRKTVVGTPAYLPPEVLQRKGYNKSLDMWSVGVIIYVTLSGTFPFNEGEEISEQIQNASFMFPTEPWSEVEPLAVDLIQKLLKVEIEARMSIEQCLDHGWLKGEQLYRDLRDLEVRLNTPRYLTSPQDDILYGTLVNP,not soluble
2,MGSDKIHHHHHHMGKLSLAAKITHVPSMYLSELPGRHHGCRAEAIRGHQAIGERCRALGVDTIVVADTHWLVNAGYHVNCNGHFAGVYTSNELPHFIRDMRYEYPGNPALGHLIAASANERGIGTRAHEIDSLELEYGTLVPMRYMNADQRFKVVSIAGWCMWHALDESRRFGEALRHAIDASDANVAFLASGSLSHRFNDNGSPEEAIHMISREFYRQVDLRVVELWKQGDFATFCKMLPEYNAHCHGEGGMHDTAMLLGLLGWDRYDKPVEIVTDYFASSGTGQINAIFPLP,not soluble
3,MAKKTSSGRGKLPPGPTPLPVIGNILQIGIKDISKSLTNLSKVYGPVFTLYFGLKPIVVLHGYEAVKEALIDLGEEFSGRGIFPLAERANRGFGIVFSNGKKWKEIRRFSLMTLRNFGMGKRSIEDRVQEEARCLVEELRKTKASPCDPTFILGCAPCNVICSIIFHKRFDYKDQQFLNLMEKLNENIKILSSPWIQICNNFSPIIDYFPGTHNKLLKNVAFMKSYILEKVKEHQESMDMNNPQDFIDCFLMKMEKEKHNQPSEFTIESLENTAVDLFGAGTETTSTTLRYALLLLLKHPEVTAKVQEEIERVIGRNRSPCMQDRSHMPYTDAVVHEVQRYIDLLPTSLPHAVTCDIKFRNYLIPKGTTILISLTSVLHDNKEFPNPEMFDPHHFLDEGGNFKKSKYFMPFSAGKRICVGEALAGMELFLFLTSILQNFNLKSLVDPKNLDTTPVVNGFASVPPFYQLCFIPIHHHH,soluble
4,SRTLQFTKMATDHSGAGNLMDCWNAGLELKSCTDEIVKFFLSQTGTSEPPVKGGIDKDCCGAIGLVVKDCWSVMFTSLGLTTMEGNNLREYCEFQAEKSELSPSPAPETLALSPVEITYPGLDY,soluble
5,MLKVLVVDDEMLARDELKYLLERTKEVEIIGEADCVEDALEELMQSRPDIVFLDIQLSDDNGFEIANILKKMKNPPAIVFATAYDQYALQAFEVDALDYILKPFDEERIVQTLKKYKKQKQSQIETKHEIKGTDVTVEMHKLALPIEESIVLVNIEDIVYVGLVDGKVTVKTMRETYVTHDTLVILEKKLPQVSFMRVHRSFIANINHITEIQPWFNSTYNLIMKEGSKVPVSRTYAKELKKLLRI,not soluble
6,MSGDYRITLEELRYISVFHSITGVTAYRCIVDEENNRLIFLVSEGEAGRAIGRGGRLIKLLREALGKNIEVVEYSSDLERIVKNLFPGVKIESINVRERNGVKQVVIKVSEDDKGAAIGKGGKNVKRARLVLSKLFGVEKVVIR,soluble
7,GSGSGSDIEAYLERIGYKKSRNKLDLETLTDILQHQIRAVPFENLNIHCGDAMDLGLEAIFDQVVRRNRGGWCLQVNHLLYWALTTIGFETTMLGGYVYSTPAKKYSTGMIHLLLQVTIDGRNYIVDAGSGRSYQMWQPLELISGKDQPQVPCVFRLTEENGFWYLDQIRREQYIPNEEFLHSDLLEDSKYRKIYSFTLKPRTIEDFESMNTYLQTSPSSVFTSKSFCSLQTPDGVHCLVGFTLTHRRFNYKDNTDLIEFKTLSEEEIEKVLKNIFNISLQRKLVPKHGDRFFTI,soluble
8,SLDVCRGMLCGFGAVCEPSVEDPGRASCVCKKNVCPAMVAPVCGSDASTYSNECELQRAQCNQQRRIRLLRQGPCGSRDPCANVTCSFGSTCVPSADGQTASCLCPTTCFGAPDGTVCGSDGVDYPSECQLLRHACANQEHIFKKFDGPCDPCQGSMSDLNHICRVNPRTRHPEMLLRPENCPAQHTPICGDDGVTYENDCVMSRIGAARGLLLQKVRSGQCQT,soluble
9,MGSDKIHHHHHHMNAPANFDSLEVGFDVPALPGMDEADIQTPCLVLDLDALERNIKKMGDYARAHGMRHRVHGKMHKSVDVAKLQERLGGAIGVCCQKVSEAEVFARGGIKDVLVSNQVRDPAKIDRLARLPKLGARTIVCVDDPANVADLSAAAQKHDTEIECFVEIDCGAGRCGVTTTEDVVEIAQAIDAAPGLKFTGIQAYQGAMQHLDSYEARKEKLDVAIAQVRDAVEGLKAADLAPELVSGGGTGSYYFESNSGVYNELQCGSYAFMDADYGRILDQDGKRIDQGEWENAFFILTQVMSHAKADKAICDAGLKAQSVDSGLPFIFGRTDVEYVKCSDEHGVIADPDGVLKVGEKLKLVPGHCDPTANVHDWYVGVRNGKVETLWPVSARGKAY,not soluble
10,MAAPASSATLPSVLQLTANTSAGGKRPSRAVTMPALKQAAKAAAAAPSPSPSFHVFADLPDHLLCSPDNSVWVYAQHTLSFLTSEAAAQAKLGRKVQRMMREAQRQYDISCAFFHSMSSDEQMAEVLRVGSGGGALSLPPAMTAATGTPAKSDRKRLTGVHRALRDAWPTWRGPNMSDAANSLTAREVGGAGESESSENRYSAGLRVNIVLDIVASRKTLRTVPLRSRPYRLAEYLYQLVMQPSATQRATAAPALGDMASHVRSLIIGISDADTTLVGCHIVCPYRHLTSPTPMMMRLRRAIEGAADQERARALAAAEAANTTVSGLDTQWQASSAAAAAEAAASDAAPSPLRSLVASHLAHYRRVDALFPAPYVRVPPQSLEQIDQNRLILCTPGKLLDG,not soluble
11,MAVPPTYADLGKSARDVFNKGYGFGLVKLEVKTKSSSGVEFTSSGSSNTDTGKASGNLETKYKMKETGLTFTQKWNTDNTLGTEVALEDKLAKGLKLSLDTTFVPNTGKKSAKLKTSYKRDYANLGIDIDLDLAGPTIYGWGVLGYQGWLAGYQMAFDTAKSRLAQNNFALGYTAGDFQLHTNVNDGTEFGGSVYQKVSKDVETSVSLAWSAGSNNTRFGIGAKYQLDSNTTISAKVNNASLIGVGYTQTLRPGVKLTLSALVNGKNFSAGGHKVGLGFELEA,not soluble
12,MAHHHHHHSLIISSLTNPNFKVGLPKVIAEVCDYLNTLDLNALENGRHDINDQIYMNVMEPETAEPSSKKAELHHEYLDVQVLIRGTENIEVGATYPNLSKYEDYNEADDYQLCADIDDKFTVTMKPKMFAVFYPYEPHKPCCVVNGKTEKIKKLVVKVPVKLIEG,not soluble
13,MIIGVLAIQGDVEEHEEAIKKAGYEAKKVKRVEDLEGIDALIIPGGESTAIGKLMKKYGLLEKIKNSNLPILGTCAGMVLLSKGTGINQILLELMDITVKRNAYGRQVDSFEKEIEFKDLGKVYGVFIRAPVVDKILSDDVEVIARDGDKIVGVKQGKYMALSFHPELSEDGYKVYKYFVENCVKK,soluble
14,MAQSTQEAEGEQQRRQAVLRERYLSFLQKSADKPATIEMCERTTVTATIKAFQPSSEHVIVGTVAVA,not soluble
15,MGSDKIHHHHHHMAFQNIQRFQNQDLIRVGNDDNYLLLAPHYGGRLVRWVRHGEEILYWPEAADWSRPAKIRGGNPLLFPFIGRHFADGEAGRWRDANGTTHTLPQHGFARDLPFTVVAADDDKIVMALESSDSTRAGYPYAFRFEASYVMLEDGVEVALRSENTGSDRLPYYAGHHFYFSLPAAHRPDTRLLLPEAVRLRQEPDGRLTHAIQGEPAYALDDDRLQDTFHALRGGGSVTLAMPGRTLAIDLDVPGCVAWHAVTTWTESKDADFYCVEPWLGLPDAIHHGHGLRWLEPGEQETAVCRVRVVA,not soluble
16,IKLNTLNTMSMGVTMRYMSEKYFKMMCGVQMEINYSQRGWDEKIEDDSGNSYSRTMNYLEIPFMAHLAFGKDALNRGVKVFFNAGPQIGFFLGDNEKINWTTSTTRPEHGKEVENKFDYGITAGAGLEVSTGIGHFLLEGRYYMGLSDFYKNSKRDFFERSAHSFIGIRLSYLI,not soluble
17,MSATFSPTAVTDLKDIQDVERLMGRIKEARAAVGEVIFGQEAVVDEVLVTLLAGGHALLIGLPGLAKTKLVQTLGTVVGLRDKRVQFTPDLMPADILGSEVLEEDAAGQRGFRFLPGPVFCQLLMADEINRASPRTQSALLQAMQEHRVSVAGHYHDLPAPFHVLATQNPIEQEGTYPLPEAQLDRFLMQVDVGYPDEAAERRMLAATTGVHQPEARAVMTPAELQAAQALVRRVPVGDSVVDAILSLVRAGRPESSPLPEVRDWVAWGPGPRASQALTLAVRARALLDGRFAPSIEDVIALAHPILRHRMALSFGARADGVTLGRVVDRLIDKIA,soluble
18,MNIMITKKAFDWYKRELGLKPGDAIRFFARYGGCSTVQKGFSLGMAKDELVDKPAAQTTVDGITFFIEESDQWYFDGRDLTVDLDEKSDEPVFLVH,not soluble
19,MDRNSLSNSLKTCYKYLNQTSRSFAAVIQALDGEMRNAVCIFYLVLRALDTLEDDMTISVEKKVPLLHNFHSFLYQPDWRFMESKEKDRQVLEDFPTISLEFRNLAEKYQTVIADICRRMGIGMAEFLDKHVTSEQEWDKYCHYVAGLVGIGLSRLFSASEFEDPLVGEDTERANSMGLFLQKTNIIRDYLEDQQGGREFWPQEVWSRYVKKLGDFAKPENIDLAVQCLNELITNALHHIPDVITYLSRLRNQSVFNFCAIPQVMAIATLAACYNNQQVFKGAVKIRKGQAVTLMMDATNMPAVKAIIYQYMEEIYHRIPDSDPSSSKTRQIISTIRTQN,soluble
20,GAMGKVTHSIHIEKSDTAADTYGFSLSSVEEDGIRRLYVNSVKETGLASKKGLKAGDEILEINNRAADALNSSMLKDFLSQPSLGLLVRTYPEL,soluble
21,MKIFLDSAITTDIQDRLATEIIDGVTTNPTLIKKSNEDPDVVYKELYDMRVKDISIEVRGDTAQELAANGILYGRKYGEVATIKLPCTVEGIKACKKLSILGHKTNMTLVFSVSQAILCAKAGATYVSPFVGRLDQIGEDGIQLIRDISRVYCVSGVKTQILAASIRSPKQAEDAYLAGADICTLPVKVFDQMFKHTLTDDGLKQFAIDFGINF,not soluble
22,TEPTIHKGLAGVTADVTAISKVNSDTNSLLYRGYPVQELAAKCSFEQVAYLLWNSELPNDSELKAFVNFERSHRKLDENVKGAIDLLSTACHPMDVARTAVSVLGANHARAQDSSPEANLEKAMSLLATFPSVVAYDQRRRRGEELIEPREDLDYSANFLWMTFGEEAAPEVVEAFNVSMILYAEHSFNASTFTARVITSTLADLHSAVTGAIGALKGPLHGGANEAVMHTFEEIGIRKDESLDEAATRSKAWMVDALAQKKKVMGFGHRVYKNGDSRVPTMKSALDAMIKHYDRPEMLGLYNGLEAAMEEAKQIKPNLDYPAGPTYNLMGFDTEMFTPLFIAARITGWTAHIMEQVADNALIRPLSEYNGPEQRQVP,soluble
